For data set [1], the system named is HeLa Kyoto. Description: thermal stability score vs G1/S (z-score of summed log2 fold changes over temperatures); higher = more thermally stable than in G1/S.
Data set [2] concerns HeLa Kyoto. Description: melting temperature (median over replicates), in situ; higher = more thermally stable.
The subject of data set [3] is HeLa Kyoto. Description: solubility in G1/S (NP-40 vs SDS abundance) (log2 ratio); higher = more soluble. As to conditions: cell cycle stage: G1/S.
For data set [4], the system named is HeLa Kyoto. Description: solubility change mitosis vs G1/S (difference of NP-40 vs SDS log2 ratios) (log2 ratio difference); higher = more soluble in mitosis.
Where [5] appears, read: cell cycle stage: early G1 (4.5 h after nocodazole release).
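Wherever melting temperature (median over replicates), in situ is given: HeLa Kyoto cells synchronized by double thymidine or nocodazole block, proteins quantified by TMT10plex mass spectrometry, three independent biological replicates.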
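Wherever solubility change mitosis vs G1/S (difference of NP-40 vs SDS log2 ratios) is given: synchronized HeLa Kyoto cells (double thymidine block for G1/S, nocodazole release for mitosis), protein amounts in NP-40 versus SDS lysates quantified by mass spectrometry, three biological replicates.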
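Wherever solubility in G1/S (NP-40 vs SDS abundance) is given: HeLa Kyoto cells arrested at G1/S by double thymidine block, proteins quantified by TMT10plex mass spectrometry in mild NP-40 versus SDS extracts, three biological replicates.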
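Wherever thermal stability score vs G1/S (z-score of summed log2 fold changes over temperatures) is given: synchronized HeLa Kyoto cells, proteins quantified by TMT10plex mass spectrometry, three biological replicates, mitosis taken 0.5 h after nocodazole release, G1/S directly after double thymidine block.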

RABGAP1, sequence (chain, as listed by the source): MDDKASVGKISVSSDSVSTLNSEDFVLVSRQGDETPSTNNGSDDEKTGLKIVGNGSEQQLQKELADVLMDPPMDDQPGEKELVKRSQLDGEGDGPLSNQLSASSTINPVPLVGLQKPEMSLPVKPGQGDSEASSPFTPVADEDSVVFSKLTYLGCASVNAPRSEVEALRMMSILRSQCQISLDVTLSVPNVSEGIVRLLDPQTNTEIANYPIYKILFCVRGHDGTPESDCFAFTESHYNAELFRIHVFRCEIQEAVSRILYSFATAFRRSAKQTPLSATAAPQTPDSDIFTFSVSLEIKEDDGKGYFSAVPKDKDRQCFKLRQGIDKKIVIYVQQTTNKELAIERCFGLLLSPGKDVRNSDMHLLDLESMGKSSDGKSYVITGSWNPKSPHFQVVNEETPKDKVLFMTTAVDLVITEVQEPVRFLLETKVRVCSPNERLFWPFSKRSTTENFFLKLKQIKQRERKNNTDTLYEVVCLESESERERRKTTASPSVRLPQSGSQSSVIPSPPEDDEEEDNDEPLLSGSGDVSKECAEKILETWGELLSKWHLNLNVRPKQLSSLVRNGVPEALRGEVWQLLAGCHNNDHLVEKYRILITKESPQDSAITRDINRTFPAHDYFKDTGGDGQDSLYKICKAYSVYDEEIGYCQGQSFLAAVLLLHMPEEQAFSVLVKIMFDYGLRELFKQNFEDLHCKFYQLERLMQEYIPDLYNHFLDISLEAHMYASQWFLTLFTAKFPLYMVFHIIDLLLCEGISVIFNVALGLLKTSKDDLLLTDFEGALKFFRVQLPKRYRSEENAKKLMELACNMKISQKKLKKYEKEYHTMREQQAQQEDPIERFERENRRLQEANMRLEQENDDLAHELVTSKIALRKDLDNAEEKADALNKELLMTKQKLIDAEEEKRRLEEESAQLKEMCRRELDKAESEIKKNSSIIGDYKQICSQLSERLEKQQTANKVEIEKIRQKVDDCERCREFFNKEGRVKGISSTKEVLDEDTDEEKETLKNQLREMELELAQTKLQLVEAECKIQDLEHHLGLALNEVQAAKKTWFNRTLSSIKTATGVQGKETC

As for “MMSDASDMLAAALEQMDGIIAGSKALEYSNGIFDCQSPTSPFMGSLRALHLVEDLRGLLEMMETDEKEGLRCQIPDSTAETLVEWLQSQMTNGHLPGNGDVYQERLARLENDKESLVLQVSVLTDQVEAQGEKIRDLEFCLEEHREKVNATEEMLQQELLSRTSLETQKLDLMAEISNLKLKLTAVEKDRLDYEDKFRDTEGLIQEINDLRLKVSEMDSERLQYEKKLKSTKSLMAKLSSMKIKVGQMQYEKQRMEQKWESLKDELASLKEQLEEKESEVKRLQEKLVCKMKGEGVEIVDRDIEVQKMKKAVESLMAANEEKDRKIEDLRQCLNRYKKMQDTVVLAQGKDGEYEELLNSSSISSLLDAQGFSDLEKSPSPTPVMGSPSCDPFNTSVPEEFHTTILQVSIPSLLPATVSMETSEKSKLTPKPETSFEENDGNIILGATVDTQLCDKLLTSSLQKSSSLGNLKKETSDGEKETIQKTSEDRAPAESRPFGTLPPRPPGQDTSMDDNPFGTRKVRSSFGRGFFKIKSNKRTASAPNLAETEKETAEHLDLAGASSRPKDSQRNSPFQIPPPSPDSKKKSRGIMKLFGKLRRSQSTTFNPDDMSEPEFKRGGTRATAGPRLGWSRDLGQSNSDLDMPFAKWTKEQVCNWLMEQGLGSYLNSGKHWIASGQTLLQASQQDLEKELGIKHSLHRKKLQLALQALGSEEETNHGKLDFNWVTRWLDDIGLPQYKTQFDEGRVDGRMLHYMTVDDLLSLKVVSVLHHLSIKRAIQVLRINNFEPNCLRRRPSDENTIAPSEVQKWTNHRVMEWLRSVDLAEYAPNLRGSGVHGGLMVLEPRFNVETMAQLLNIPPNKTLLRRHLATHFNLLIGAEAQHQKRDAMELPDYVLLTATAKVKPKKLAFSNFGNLRKKKQEDGEEYVCPMELGQASGSASKKGFKPGLDMRLYEEDDLDRLEQMEDSEGTVRQIGAFSEGINNLTHMLKEDDMFKDFAARSPSASITDEDSNV [PPFIBP1]”, the figures for the thermal stability score with HeLa Kyoto [1] (setting [5]) and in the data set on HeLa Kyoto [1] (cell cycle stage: mitosis) were 0.0729 and 0.352, respectively. In addition, the melting temperature in the data set with HeLa Kyoto [2] (cell cycle stage: G1/S) is 49.4 °C; in the data set with HeLa Kyoto [2] (cell cycle stage: mitosis), 49 °C. Also, the “solubility in G1/S (log2)” value with HeLa Kyoto [3] amounted to 0.425. Besides, the “solubility change mitosis (log2)” value in the data set on HeLa Kyoto [4] was -0.0985.

For the substance “MPMYQVKPYHGGGAPLRVELPTCMYRLPNVHGRSYGPAPGAGHVQEESNLSLQALESRQDDILKRLYELKAAVDGLSKMIQTPDADLDVTNIIQADEPTTLTTNALDLNSVLGKDYGALKDIVINANPASPPLSLLVLHRLLCEHFRVLSTVHTHSSVKSVPENLLKCFGEQNKKQPRQDYQLGFTLIWKNVPKTQMKFSIQTMCPIEGEGNIARFLFSLFGQKHNAVNATLIDSWVDIAIFQLKEGSSKEKAAVFRSMNSALGKSPWLAGNELTVADVVLWSVLQQIGGCSVTVPANVQRWMRSCENLAPFNTALKLLK [AIMP2]”, the thermal stability score was 0.153 with HeLa Kyoto [1] (setting [5]) and 1.22 in the data set with HeLa Kyoto [1] (cell cycle stage: mitosis). Also, the melting temperature in the data set with HeLa Kyoto [2] (cell cycle stage: G1/S) is 48.9 °C; with HeLa Kyoto [2] (cell cycle stage: mitosis), 49.6 °C. For the same substance, the “solubility in G1/S (log2)” value in the data set with HeLa Kyoto [3] stood at 0.321. The “solubility change mitosis (log2)” value in the data set on HeLa Kyoto [4] was 0.104.

Consider RABGAP1, for which the thermal stability score was -0.113 in the data set with HeLa Kyoto [1] (setting [5]) and -0.37 with HeLa Kyoto [1] (cell cycle stage: mitosis). The figures for the melting temperature in the data set on HeLa Kyoto [2] (cell cycle stage: G1/S) and in the data set on HeLa Kyoto [2] (cell cycle stage: mitosis) were 50.9 °C and 50.5 °C, respectively. In addition, the “solubility in G1/S (log2)” value in the data set with HeLa Kyoto [3] was -0.122. In addition, the “solubility change mitosis (log2)” value in the data set on HeLa Kyoto [4] was -0.111.

As to “MGRESRHYRKRSASRGRSGSRSRSRSPSDKRSKRGDDRRSRSRDRDRRRERSRSRDKRRSRSRDRKRLRRSRSRERDRSRERRRSRSRDRRRSRSRSRGRRSRSSSPGNKSKKTENRSRSKEKTDGGESSKEKKKDKDDKEDEKEKDAGNFDQNKLEEEMRKRKERVEKWREEQRKKAMENIGELKKEIEEMKQGKKWSLEDDDDDEDDPAEAEKEGNEMEGEELDPLDAYMEEVKEEVKKFNMRSVKGGGGNEKKSGPTVTKVVTVVTTKKAVVDSDKKKGELMENDQDAMEYSSEEEEVDLQTALTGYQTKQRKLLEPVDHGKIEYEPFRKNFYVEVPELAKMSQEEVNVFRLEMEGITVKGKGCPKPIKSWVQCGISMKILNSLKKHGYEKPTPIQTQAIPAIMSGRDLIGIAKTGSGKTIAFLLPMFRHIMDQRSLEEGEGPIAVIMTPTRELALQITKECKKFSKTLGLRVVCVYGGTGISEQIAELKRGAEIIVCTPGRMIDMLAANSGRVTNLRRVTYVVLDEADRMFDMGFEPQVMRIVDNVRPDRQTVMFSATFPRAMEALARRILSKPIEVQVGGRSVVCSDVEQQVIVIEEEKKFLKLLELLGHYQESGSVIIFVDKQEHADGLLKDLMRASYPCMSLHGGIDQYDRDSIINDFKNGTCKLLVATSVAARGLDVKHLILVVNYSCPNHYEDYVHRAGRTGRAGNKGYAYTFITEDQARYAGDIIKALELSGTAVPPDLEKLWSDFKDQQKAEGKIIKKSSGFSGKGFKFDETEQALANERKKLQKAALGLQDSDDEDAAVDIDEQIESMFNSKKRVKDMAAPGTSSVPAPTAGNAEKLEIAKRLALRINAQKNLGIESQDVMQQATNAILRGGTILAPTVSAKTIAEQLAEKINAKLNYVPLEKQEEERQDGGQNESFKRYEEELEINDFPQTARWKVTSKEALQRISEYSEAAITIRGTYFPPGKEPKEGERKIYLAIESANELAVQKAKAEITRLIKEELIRLQNSYQPTNKGRYKVL [DDX46]”, the figures for the thermal stability score in the data set with HeLa Kyoto [1] (setting [5]) and with HeLa Kyoto [1] (cell cycle stage: mitosis) were 3.63 and 9.43, respectively. Moreover, the melting temperature was 47.7 °C with HeLa Kyoto [2] (cell cycle stage: G1/S) and 49.2 °C with HeLa Kyoto [2] (cell cycle stage: mitosis). Further, the “solubility in G1/S (log2)” value with HeLa Kyoto [3] is -0.607. The “solubility change mitosis (log2)” value in the data set with HeLa Kyoto [4] was -0.00451.

(Values after the supplement of paper PMC5998384.)
